assay: yeast display, Sf9 membrane polyspecificity reagent, FACS + sequencing; frameworks hold sequencing errors
Outline: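 A synthetic nanobody library was expressed on Saccharomyces cerevisiae BJ5465 by galactose induction for 36–48 hours. The library was stained for 1 hour at 4 °C with 10% biotinylated, detergent-solubilized Sf9 membrane reagent and enriched with streptavidin microbeads before FACS. Low and high (top ~1%) gates were set on anti-HA fluorescence for expression and streptavidin fluorescence for reagent binding, and each polyreactivity label reflects the gate of origin.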

Row | Sequence | polyreactivity (PSR sort gate)
1 | QVQLVESGGGLVQAGGSLRLSCAASGRTFVTYAMGWYRQAPGKERELVAGISRRGGRTYYADSVKGRFTISRDNAKNTVYLQMNSLKPEDTAVYYCAAYDRITRYDYWGQGTQVTVSS | high polyreactivity
2 | QVQLVESGGGLVQAGGSLRLSCAASGRTFVTYGMGWYRQAPGKERQLVAAISKRGSRTYYADSVKGRFTISRDNAKNTVYLQMNSLKPEDTAVYYCNAETYRTTYDYWGQGTQVTVSS | high polyreactivity
3 | QVQLVESGGGLVQAGGSLRLSCAASGRTFVVNAMGGYRQAPGKERELVAAITYSGDTTYYADSVKGRFTISRDNAKNTVYLQMNSLKPEDTAVYYCAADTGVVSPPAGLLIGPFDSWGQGTQVTVSS | low polyreactivity
4 | QVQLVESGGGLVQAGGSLRLSCAASGRTFVWYAMGWYRHAPGKERELVAAISRSGGSTYYADSVKGRFTISRDNAKNTVYLQMNSLKPEDTAVYYCNAQWYVYDYYEFDYWGQGTQVTVSS | high polyreactivity
5 | QVQLVESGGGLVQAGGSLRLSCAASGRTFVWYDMGWYRQAPGKERELVAAITKRGTSTYYADSVKGRFTISRDNGKNTVYLQMNRLKPEDTAVYYCAVEYIYWFHSRSSYIYDYWGQGTQVTVSS | low polyreactivity
6 | QVQLVESGGGLVQAGGSLRLSCAASGRTFVYNAMGWYRQAPGKERELVAAISSDGASTYYADSVKGRFTISRDNAKNTVYLQMNSLKPEDTAVYYCAADFSYYSYEHYYWGQGTKVTVSS | low polyreactivity
7 | QVQLVESGGGLVQAGGSLRLSCAASGRTFVYNAMGWYRQAPGKERELVAAISSDGASTYYADSVKGRFTISRDNAKNTVYLQMNSLKPEDTAVYYCAADFSYYSYEHYYWVQGTQVTVSS | low polyreactivity
8 | QVQLVESGGGLVQAGGSLRLSCAASGRTFVYNAMGWYRQAPGKERELVAAITWNGGSTYYADSVKGRFTISRDNAKNTVYLQMNSLKPEDTAVYYCNRDVRYVGPSGFDYWGQGTQVTVSS | high polyreactivity
9 | QVQLVESGGGLVQAGGSLRLSCAASGRTFVYYAMGRYRQAPGKERELVAAISGSGGSTYYADSVKGRFTISRDNAKNTVYLQMISLKPEDTAVYYCAAGPRGRYRYGYWGQGTQVTVSS | high polyreactivity
10 | QVQLVESGGGLVQAGGSLRLSCAASGRTFVYYAMGWYRPAPGKERELVAAISRSGSTYYADSVKGRFTISRDNAKNTVYLQMNSLKPEDTAVYYCARPGGPDRTSSPYPYPYGYWGQGTQVTVSS | low polyreactivity
11 | QVQLVESGGGLVQAGGSLRLSCAASGRTFVYYAMGWYRQAPGKEREFVAAISRSGGHTSYADSVKGRFTISRDNAKNTVYLQMNSLKPEDTAVYYCAAEKRTQPTSREYYWGQGTQVTVSS | high polyreactivity
12 | QVQLVESGGGLVQAGGSLRLSCAASGRTFVYYAMGWYRQAPGKEREFVAAISRSGGRTSYADSVKGRFTISRDKAKNTVYLQMNSLKPEDTAVYYCAAKVRQWRQGSYSSQYDYWGQGTQVTVSS | high polyreactivity
13 | QVQLVESGGGLVQAGGSLRLSCAASGRTFVYYAMGWYRQAPGKERELVAAIRSGGSTNYADSVKGLFSISRDTAKNTVSLQMNSLKPEDTSVYYCNAVHYYYYKGDYWGQGTQVTVSS | high polyreactivity
14 | QVQLVESGGGLVQAGGSLRLSCAASGRTFVYYAMGWYRQAPGKERELVAAISSRGGSTYYADSVKGRFTISRDYAKNTVYLQMNSLKPEDTAVYYCAARARRRYYYWGQGTQVTVSA | high polyreactivity
15 | QVQLVESGGGLVQAGGSLRLSCAASGRTFVYYAMGWYRQAPGKERELVAAISTGGSTNYADSVKGRFTISRDNAKNTVYLQMNSLKPEDTAVYYCAAQYYISISKYDYWGQGTQVTVSS | low polyreactivity
16 | QVQLVESGGGLVQAGGSLRLSCAASGRTFVYYAMGWYRQAPGNERELVASISSGAGSPNYADSVKGRYTISRDNAKNTGYVQMNSLKPEDTAVYYCAVDTPRYRYYRTSYDYWRQGTQVTVSS | low polyreactivity
17 | QVQLVESGGGLVQAGGSLRLSCAASGRTFWANAMGWYRQAPGKERELVAAITIGGRTYYADSVKGRFTISRDNAKNTVYIQMNSLKPEDTAVYYCNAGSRRPFPAESGYWGQGTQVTVSS | low polyreactivity
18 | QVQLVESGGGLVQAGGSLRLSCAASGRTFWANAMGWYRQAPGKERELVAAITSGGSTNYADSVKGRFTISRDNAKNTVYLQMNSLKPEDTAVYYCAAAINRYRRTFNYWGQGTQVTVSS | high polyreactivity
19 | QVQLVESGGGLVQAGGSLRLSCAASGRTFWDYGMGWYRQAPGKERELVPTISGNGGDTYYADSVKGRFTISRDNAKNTVYLQMNSLKPEDTAVYFCAADYRFYRTDRHYDYWGQGTQVTVSS | low polyreactivity
20 | QVQLVESGGGLVQAGGSLRLSCAASGRTFWDYMGWYRQAPGKERELVATITSSGGSTYYADSVKGRFTISRDNAKNTVYLQMNSLKPEDTAVYYCNADWYLWSTFAQGYGYWGQGTQVTVSS | high polyreactivity
21 | QVQLVESGGGLVQAGGSLRLSCAASGRTFWFYSMAWYRQAPGKERELVATINYRGGTTYYADSVKGRFTISRDNAKNTVYLQMNSLKPEDTAVYYCAVRPTRTFIYDYWGQGTQVTVSS | high polyreactivity
22 | QVQLVESGGGLVQAGGSLRLSCAASGRTFWGYAMGWYRQAPGKERELVAAISLSGGRTNYADSVKGRFTISRDNAKNTVYLQMNSLKPEDTAVYYCAADKRPDGRMDYWGQGTQVTVSS | high polyreactivity
23 | QVQLVESGGGLVQAGGSLRLSCAASGRTFWGYAMGWYRQAPGKERELVATISSTGSTNYADSVKGRFTISRDNAKNPVYLQMNSLKPEDTAVYYCNAKRHLYRGWYQRYDYWGQGTQVTVSS | high polyreactivity
24 | QVQLVESGGGLVQAGGSLRLSCAASGRTFWKNTMGWYRQAPGKERELVAVISSGGVSTSYADSVKGRFTISRDNAKNTVYLQMNSLKPEDTAVYYCAADGYYIGPYDYWGQGTQVTVSS | low polyreactivity
25 | QVQLVESGGGLVQAGGSLRLSCAASGRTFWKYAMGWYRQAPGKERELVAAITASGARTYYADSVKGRFTISRDNAKNTVYLQLNSLKPEDTAVYYCNAGSVSDRQMDYWGQGTQVTVSS | low polyreactivity
26 | QVQLVESGGGLVQAGGSLRLSCAASGRTFWKYVMGWYRQAPGKEREVVAVISRPAGSTYYADSVKGRFTISRDNAKNTVYLQMNSLKPEETAVYYCNKPGGQSLGGYNYWVQGTQVTVSS | low polyreactivity
27 | QVQLVESGGGLVQAGGSLRLSCAASGRTFWLYAMGWYRQATGKERELVAGISRGGRTYYADSVKGRFTISRDNAKNTVYLQMNSLKPEDTAVYYGAADRYTVRMDCWGQGTQVTVSS | high polyreactivity
28 | QVQLVESGGGLVQAGGSLRLSCAASGRTFWNAMGWYRQAPGKERELVATITSGGITNYADSVKGRFTISRDNAKNTVYLQMNSLKPEDTAVYYCAARPYSWRNYRPSDYWGQGTQVTVSS | high polyreactivity
29 | QVQLVESGGGLVQAGGSLRLSCAASGRTFWNYAMGWYRQAPGKERELVAAIRSSGGRTYYADSVKGRFTISRDNAKNTVYLQMNSLKPEDTAVYYCAAYGFIEGIGTYDYWGQGTQVTVSS | high polyreactivity
30 | QVQLVESGGGLVQAGGSLRLSCAASGRTFWPNVMGWYRQAPGKERELVAAITWGDASTYYADSVKGRFTISRDNAKNTVYLQMNSLKPEDTAVYYCAASDYGRTYDYWGQGTQVTVSS | low polyreactivity

From the nanobody polyreactivity screen of Harvey et al. (2022)
